Assay [1] concerns the target χ subunit of DNA polymerase III of E. coli, wild-type (E. coli, UniProt P28905 1-147). As to the kind of experiment: cross-linking.
In the next assay the target is χ K124A (E. coli, UniProt P28905 1-147, K124A). Nature of the assay: cross-linking.

B1: SSB-Carb, peptide containing the last nine amino acids of EcoSSB (peptide)
peptide: WMDFDDDIPF
In the case of B1, the binding result (in assay [1]; with χ K124A) was “binds” each time.

Source of the values: article PMC3045619 (Nucleic Acids Research, 2010).
